B1: EGFP-Mps1^WT [Drosophila] / MBP-PP1-87B [Drosophila] (parent)
chain 1: MTTPVPRRTKDMMALGLDSDSEDDFNTPYRPRQAAAGERKQQPVASFQVQTRGKENEPHPLPINMLPRRVSELTMMDSDSDEEDIKSNHNLNCAILNDSFVLSPSQELTNSNSNITTRRTPSAAPLKQSDSNLSFLGRFNDMGINCSSQGSPVANSEKQVAKKTAPTLQAAPSATERRPLQETETPLRNELPSTSKTKPDADFITPQVRTIGSTLAGKSRSAVSNDFRAQKVLFQTPMTVSRAAPVASDSISFSLCDTITESPDIPEPPKKAEPPKSQHPSKKSLDHVFRESDKDNVPDKVDNVEPKELVSIPAVAVPPEQPSHKTSNILKIKNHEYTIDKKLGCGGSSSVFLARRSDSGNEFALKVVDLQADPQVVQGYLNETKLLAKLQGNVCVVALYDYQLVREESKLYMVMEKGDCDLNKILQSYTTNLPLYSLMNILYQMLQAVNYIHQHGVIHSDLKPANFLMVSGRLKLIDFGIASNIAVDSTSIIKFSQAGTFNYISPEALTDTSTGNSPMRRADQPKIKISTKSDVWSLGCILYLLLYQKTPFGHIRNVYAKMSAITTPGTSIEYPAIPPYYPIMLVHMAKNCLQLNPKKRPSCTELLQYPFHMIIPLQNLQIPSRTANSN
chain 2: MGDVMNIDSIISRLLEVRGARPGKNVQLSEGEIRGLCLKSREIFLSQPILLELEAPLKICGDIHGQYYDLLRLFEYGGFPPESNYLFLGDYVDRGKQSLETICLLLAYKIKYSENFFLLRGNHECASINRIYGFYDECKRRYSIKLWKTFTDCFNCLPVAAIVDEKIFCCHGGLSPDLTSMEQIRRIMRPTDVPDQGLLCDLLWSDPDKDTMGWGENDRGVSFTFGAEVVAKFLQKHEFDLICRAHQVVEDGYEFFAKRMLVTLFSAPNYCGEFDNAGAMMSVDDTLMCSFQILKPADKRKK

Variants of: B1
Assay: pull-down (MBP-PP1-87B beads, S2 cell lysates), western blot chemiluminescence quantification
Conditions: with MBP-PP1-87B [Drosophila]; at least two independent experiments; mean ± SD; parent: 1; read off a plot

Variant | ratio to parent
chain 1 K231A F234A | 0.3
